{"source": "patent US20210284709A1", "about": "(JUNO THERAPEUTICS, published 2021)", "binders": {"B1": {"name": "TCR 10 (native, clonal T cell line) (TCR, V domains shown)", "V domain 1": "RKEVEQDPGPFNVPEGATVAFNCTYSNSASQSFFWYRQDCRKEPKLLMSVYSSGNEDGRFTAQLNRASQYISLLIRDSKLSDSATYLCVVNFPSRGAGGTSYGKLTFGQGTILTVHP", "V domain 2": "DVKVTQSSRYLVKRTGEKVFLECVQDMDHENMFWYRQDPGLGLRLIYFSYDVKMKEKGDIPEGYSVSREKKERFSLILESASTNQTSMYLCASSLSLTGNYGYTFGSGTRLTVVE"}, "B2": {"name": "modified version of TCR 9 (TCR)", "TCR alpha": "AQKITQTQPGMFVQEKEAVTLDCTYDTSDPSYGLFWYKQPSSGEMIFLIYQGSYDQQNATEGRYSLNFQKARKSANLVISASQLGDSAMYFCAMRTAGGTSYGKLTFGQGTILTVHPNIQNPDPAVYQLRDSKSSDKSVCLFTDFDSQTNVSQSKDSDVYITDKCVLDMRSMDFKSNSAVAWSNKSDFACANAFNNSIIPEDTFFPSPESSCDVKLVEKSFETDTNLNFQNLSVIGFRILLLKVAGFNLLMTLRLWSS", "TCR beta": "NAGVTQTPKFRVLKTGQSMTLLCAQDMNHEYMYWYRQDPGMGLRLIHYSVGEGTTAKGEVPDGYNVSRLKKQNFLLGLESAAPSQTSVYFCASSYFGTAYEQYFGPGTRLTVTEDLKNVFPPEVAVFEPSEAEISHTQKATLVCLATGFYPDHVELSWWVNGKEVHSGVCTDPQPLKEQPALNDSRYCLSSRLRVSATFWQNPRNHFRCQVQFYGLSENDEWTQDRAKPVTQIVSAEAWGRADCGFTSESYQQGVLSATILYEILLGKATLYAVLVSALVLMAMVKRKDSRG"}}, "key": {"[1]": {"target": "T1, HLA-A2/E6(29-38) tetramer (human; HPV 16)", "T1 construct": "also called E6(29-38) peptide-MHC tetramer; E6 tet", "experiment": "tetramer staining of clonal T cell line vs control"}, "[2]": {"target": "T1, HLA-A2/E6(29-38) tetramer", "experiment": "cell-based or functional assay"}, "[3]": {"target": "HLA-A2/E7(11-19) tetramer (human; HPV 16)", "experiment": "cell-based or functional assay"}, "[4]": {"target": "T1, HLA-A2/E6(29-38) tetramer", "experiment": "flow cytometry, tetramer + anti-CD8; transfected Jurkat-derived cells, CD8+ cells", "experimental": "For transfection, the CD4+ and CD4+/CD8+ cell mixtures were transiently transfected with TCR-encoding plasmids and 48 hours after transfection, cells were assessed by flow cytometry for (1) binding of the target peptide in the context of an MHC molecule (HLA:A02:01) by staining with an E6(29-38) peptide- or an E7(11-19) peptide-MHC tetramer reagent, and/or (2) CD8+ independent binding of the target by co-staining the tetramer-labeled cells with an anti-CD8 antibody."}}}
{"binder": "B1", "values": [{"measurement": "binding result", "setting": "[1]", "result": "binds"}]}
{"binder": "B2", "values": [{"measurement": "% CD8+/IC IFNγ+", "setting": "[2]", "result": 91.1, "unit": "%"}, {"measurement": "% CD8+/IC IFNγ+", "setting": "[3]", "result": 19.5, "unit": "%"}, {"measurement": "% cells E6 tet+/CD8+ quadrant", "setting": "[4]", "result": 42.5, "unit": "%"}, {"measurement": "% cells E6 tet+/CD8- quadrant", "setting": "[4]", "result": 0.051, "unit": "%"}]}
